Reference: US20260055430, “[…] WITH ALTERED […] ACTIVITY” (Flagship Pioneering Innovations VI, LLC, published 2026)

Assays:
Int17 (Integrase 1206) = test: cell_activity; conditions: ~500 bp region template
Int138 (Integrase 1116) = test: cell_activity; conditions: HEK293T, template with ~500 bp region containing attP; attP from Table 2
Int171 (Integrase 450) = test: cell_activity; conditions: ~500 bp region template
Int104 (Integrase 1222) = test: cell_activity; conditions: ~500 bp region template
Int182 (Integrase 1227) = test: cell_activity; conditions: ~500 bp region template
Int22 (Integrase 1207) = test: cell_activity; conditions: ~500 bp region template
Int106 (Integrase 1223) = test: cell_activity; conditions: ~500 bp region template
[1] = test system: Int29/Int105 (Integrase 477); test: cell_activity; conditions: Int29; same accession as Int105 gave 0.77
Int30 (Integrase 436) = test: cell_activity; conditions: ~500 bp region template
Int94 (Integrase 1219) = target: T1, Int94 (Integrase 1219) (UniProt A7GVM1); test: cell_activity; conditions: ~500 bp region template
T1 sequence: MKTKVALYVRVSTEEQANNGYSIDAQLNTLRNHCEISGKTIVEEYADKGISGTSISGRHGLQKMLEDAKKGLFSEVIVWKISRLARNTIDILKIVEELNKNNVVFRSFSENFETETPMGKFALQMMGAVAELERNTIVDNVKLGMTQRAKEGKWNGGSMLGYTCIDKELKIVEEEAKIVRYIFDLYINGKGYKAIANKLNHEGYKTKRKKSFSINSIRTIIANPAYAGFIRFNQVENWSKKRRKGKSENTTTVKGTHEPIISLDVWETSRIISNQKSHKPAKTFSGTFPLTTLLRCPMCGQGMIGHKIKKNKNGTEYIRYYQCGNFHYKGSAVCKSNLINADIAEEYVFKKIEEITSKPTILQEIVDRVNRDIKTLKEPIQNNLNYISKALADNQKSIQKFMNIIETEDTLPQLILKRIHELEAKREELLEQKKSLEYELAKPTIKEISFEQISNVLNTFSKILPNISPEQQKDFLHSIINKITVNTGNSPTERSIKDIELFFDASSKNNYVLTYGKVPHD

Int192 (Integrase 165) = target: T2, Int192 (Integrase 165) (UniProt C9DC17 C9DC17:1-507); test: cell_activity; ~500 bp region template
T2 sequence: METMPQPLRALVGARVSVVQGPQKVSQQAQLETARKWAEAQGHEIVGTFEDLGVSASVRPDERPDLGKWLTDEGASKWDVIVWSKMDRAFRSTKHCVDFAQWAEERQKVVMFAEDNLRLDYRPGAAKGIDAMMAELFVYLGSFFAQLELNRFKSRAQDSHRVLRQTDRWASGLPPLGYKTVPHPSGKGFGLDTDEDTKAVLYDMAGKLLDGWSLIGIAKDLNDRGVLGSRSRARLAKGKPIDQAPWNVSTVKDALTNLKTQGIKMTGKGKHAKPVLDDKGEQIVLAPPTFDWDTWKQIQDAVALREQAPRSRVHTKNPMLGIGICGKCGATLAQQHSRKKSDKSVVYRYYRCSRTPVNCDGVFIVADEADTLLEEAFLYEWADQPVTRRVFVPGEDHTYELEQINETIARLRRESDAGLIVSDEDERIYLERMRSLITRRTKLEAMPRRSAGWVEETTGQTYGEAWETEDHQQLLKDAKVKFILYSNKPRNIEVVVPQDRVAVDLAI

Int60 (Integrase 27) = target: T3, Int60 (Integrase 27) (UniProt Q858X3 Q858X3:1-594); test: cell_activity; ~500 bp region template
T3 sequence: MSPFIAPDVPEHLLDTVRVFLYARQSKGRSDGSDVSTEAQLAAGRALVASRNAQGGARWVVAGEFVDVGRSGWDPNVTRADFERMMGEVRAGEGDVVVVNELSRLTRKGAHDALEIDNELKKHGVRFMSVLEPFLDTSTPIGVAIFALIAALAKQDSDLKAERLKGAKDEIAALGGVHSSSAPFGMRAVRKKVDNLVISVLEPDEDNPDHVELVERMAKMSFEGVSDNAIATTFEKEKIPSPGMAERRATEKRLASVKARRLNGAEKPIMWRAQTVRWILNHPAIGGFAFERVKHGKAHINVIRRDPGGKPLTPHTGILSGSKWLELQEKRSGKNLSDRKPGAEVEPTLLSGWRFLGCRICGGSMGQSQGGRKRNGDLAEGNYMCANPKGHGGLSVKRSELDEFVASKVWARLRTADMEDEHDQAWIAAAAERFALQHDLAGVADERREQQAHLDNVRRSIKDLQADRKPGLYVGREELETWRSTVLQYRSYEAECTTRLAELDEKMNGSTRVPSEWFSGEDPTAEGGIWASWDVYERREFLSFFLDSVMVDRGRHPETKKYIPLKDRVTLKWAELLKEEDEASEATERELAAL

Int103 (Integrase 1221) = target: T4, Int103 (Integrase 1221) (UniProt Q928V6 Q928V6:1-452); test: cell_activity; ~500 bp region template
T4 sequence: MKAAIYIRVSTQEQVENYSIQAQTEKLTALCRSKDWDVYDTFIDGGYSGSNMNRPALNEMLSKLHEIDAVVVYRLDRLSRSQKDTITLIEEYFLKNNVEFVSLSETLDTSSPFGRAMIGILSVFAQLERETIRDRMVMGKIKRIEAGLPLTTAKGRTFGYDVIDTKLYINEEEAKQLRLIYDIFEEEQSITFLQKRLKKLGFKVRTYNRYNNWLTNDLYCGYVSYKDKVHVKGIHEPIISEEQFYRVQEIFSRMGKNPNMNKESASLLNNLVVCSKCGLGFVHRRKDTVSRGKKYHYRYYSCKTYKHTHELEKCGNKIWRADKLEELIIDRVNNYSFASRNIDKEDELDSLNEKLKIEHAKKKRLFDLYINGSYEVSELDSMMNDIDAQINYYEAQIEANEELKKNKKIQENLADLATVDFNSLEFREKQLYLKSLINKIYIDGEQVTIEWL

## GTTAGGTGTATATCATACCTAACGCAATTCATTACATCACATATGTTATACACCTACTTTAA (double strand) [1206 attP]
Int17 (Integrase 1206)
  activity: 0.123 % GFP+

## TGTAGTAAGTATCTTAATATACAGCTTTATCTGTTTTTTAAGATACTTACTACTTT (double strand) [1116 attP]
Int138 (Integrase 1116)
  activity: 27.6 % GFP+

## TATTAGTATAGAAGAAAGCTCTCAGCACACGTGGAGTGTGTTGCTCTCTGCTCGTAAAGCCT (double strand) [450 attP]
Int171 (Integrase 450)
  activity: 0.16 % GFP+

## TTCCTCGTTTTCTCTCGTTGGACGGAAACGAATCGAGAAA (double strand) [1222 attP]
Int104 (Integrase 1222)
  activity: 0.58 % GFP+

## AAATATAACCTGTGTATTGAAACAAGGTGCTGATAAAACCCTTTCATAAACACAAGTAAATA (double strand) [1227 attP]
Int182 (Integrase 1227)
  activity: 0.22 % GFP+

## AAAAGAATCCAAATTATCGTACTTTAACATAGTGAATACTGTCCATCATGTATAAAAGTACG (double strand) [1207 attP]
Int22 (Integrase 1207)
  activity: 0.16 % GFP+

## CAATGAAAAACTAGGCATGTAGAAGTTGTTTGT (double strand) [1223 attP]
Int106 (Integrase 1223)
  activity: 1.77 % GFP+

## TTCCTCGTTTTCTCTCGTTGGAAGAAGAAGAAACGAGAAA (double strand) [477 attP]
[1]
  activity: 0.91 % GFP+

## ATTTTAGGTATATGATTTTGTTTATTAGTGTAAATAACACTATGTACCTAAAAT (double strand) [436 attP]
Int30 (Integrase 436)
  activity: 10.1 % GFP+

## CAATAACGGTTGTATTTGTAGAACTTGACCAGTTGTTTTAGTAACATAAATACAACTCCGAATA (double strand) [1219 attP]
Int94 (Integrase 1219)
  activity: 0.23 % GFP+

B1: 165 attP (dsDNA)
DNA 1: TAGTTTCCAATGTTACAGGAACTGCTGGCAGAATCCAACACATTGGAAGTCG
DNA 2: CGACTTCCAATGTGTTGGATTCTGCCAGCAGTTCCTGTAACATTGGAAACTA
Int192 (Integrase 165)
  activity: 0.57 % GFP+

B2: 27 attP (dsDNA)
DNA 1: GGTGCTGGGTTGTTGTCTCTGGACAGTGATCCATGGGAAACTACTCAGCACC
DNA 2: GGTGCTGAGTAGTTTCCCATGGATCACTGTCCAGAGACAACAACCCAGCACC
Int60 (Integrase 27)
  activity: 0.17 % GFP+

B3: 1221 attP (dsDNA)
DNA 1: GTTTAGTATCTCGTTATCTCTCGTTGGAGGGAGAAGAAACGGGATACCAAAA
DNA 2: TTTTGGTATCCCGTTTCTTCTCCCTCCAACGAGAGATAACGAGATACTAAAC
Int103 (Integrase 1221)
  activity: 0.22 % GFP+
